# In PMC9974466 (Proceedings of the National Academy of Sciences of the …, 2023):
# Entries after “also recorded” stand apart in the source; their conditions may differ. Like-named read-outs stand apart in the source and are kept apart here. Ends that are not written are not given here.
# T1: human PTHR1 (SGS-72 cells, SaOS-2 derived) (Homo sapiens, UniProt Q03431)
# T1 construct: SGS-72 cells, i.e., human osteosarcoma SaOS-2 cells stably expressing the Glosensor cAMP reporter; endogenous in cells; host or cells: SGS-72 (human osteosarcoma SaOS-2-derived)
# T1 sequence (Q03431 27-593): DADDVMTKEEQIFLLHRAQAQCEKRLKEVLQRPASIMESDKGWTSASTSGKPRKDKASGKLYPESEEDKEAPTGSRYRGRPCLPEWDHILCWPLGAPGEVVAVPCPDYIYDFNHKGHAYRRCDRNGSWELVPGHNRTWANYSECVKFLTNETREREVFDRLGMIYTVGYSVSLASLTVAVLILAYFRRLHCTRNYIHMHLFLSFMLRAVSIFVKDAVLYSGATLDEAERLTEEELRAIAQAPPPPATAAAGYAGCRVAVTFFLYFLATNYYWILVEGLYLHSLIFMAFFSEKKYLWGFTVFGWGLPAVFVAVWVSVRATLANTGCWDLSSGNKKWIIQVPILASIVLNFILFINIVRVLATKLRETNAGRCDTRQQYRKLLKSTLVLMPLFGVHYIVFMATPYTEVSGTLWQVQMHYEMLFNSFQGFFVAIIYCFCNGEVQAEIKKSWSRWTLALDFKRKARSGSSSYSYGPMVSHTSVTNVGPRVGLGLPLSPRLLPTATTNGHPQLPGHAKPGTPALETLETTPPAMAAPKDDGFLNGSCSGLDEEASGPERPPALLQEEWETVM
# T2: human PTHR1 (Homo sapiens, UniProt Q03431)
# T2 construct: expressed in transfected cells; host or cells: GP2.3 (HEK293-derived)
# T2 sequence (Q03431 27-593): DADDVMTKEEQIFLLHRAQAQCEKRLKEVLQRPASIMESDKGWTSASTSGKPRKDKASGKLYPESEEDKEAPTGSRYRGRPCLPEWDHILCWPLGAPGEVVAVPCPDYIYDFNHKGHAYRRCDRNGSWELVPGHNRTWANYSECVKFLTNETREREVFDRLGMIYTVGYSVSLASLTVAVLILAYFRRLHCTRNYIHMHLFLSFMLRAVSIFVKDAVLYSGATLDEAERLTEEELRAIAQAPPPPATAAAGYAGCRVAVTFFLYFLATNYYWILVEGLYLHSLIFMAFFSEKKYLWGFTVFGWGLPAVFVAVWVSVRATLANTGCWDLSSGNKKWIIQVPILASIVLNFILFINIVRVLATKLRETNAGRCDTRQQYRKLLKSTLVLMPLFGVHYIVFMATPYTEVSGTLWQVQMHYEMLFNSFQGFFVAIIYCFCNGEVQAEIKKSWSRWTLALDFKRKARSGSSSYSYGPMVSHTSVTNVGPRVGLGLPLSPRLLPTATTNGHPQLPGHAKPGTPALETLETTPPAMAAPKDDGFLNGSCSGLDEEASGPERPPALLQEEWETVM
# Tests used:
# [1] = target: T1, human PTHR1 (SGS-72 cells, SaOS-2 derived); assay: PTH-stimulated cAMP formation in SGS-72 reporter cells (Glosensor); assay type: cell-based; conditions: for Biological activity relative to corresponding PTH(1-34) analog (in words): compared with PTH(1-34) analogs
# Description: (§1) SGS-72 cells, i.e., human osteosarcoma SaOS-2 cells stably expressing the Glosensor cAMP reporter, were maintained in modified McCoy’s 5A medium [15% FBS, 1% penicillin/streptomycin, and 1% nonessential amino acids, as described ([29])]. GP2.3 cells, i.e., HEK293 cells stably expressing the human PTHR1 and the Glosensor cAMP reporter, were maintained in DMEM (10% FBS, 1% penicillin/streptomycin), as described ([24]). Cells were seeded into 96‐well white plates (40,000 cells/100µL/well); 24 to 48 h after confluency, the wells were rinsed with 100 µL carbon dioxide-independent culture medium (CIDB; Life Technologies) containing 0.1% bovine serum albumin (BSA), which was then replaced with 90 µL of luciferin (0.5 mM in CIDB) for 15 min before adding 10 µL of increasing concentrations of PTH analogs diluted in CIDB or 10 µL of CIDB, and then measuring cAMP‐dependent luminescence at 2‐min intervals using a PerkinElmer Envision plate reader (PerkinElmer), as described ([24]). […] GP2.3 cells were also used for the evaluation of CM from transfected COS-7 cells; PTH(1-84) served as control.
# SGS-72 cells were used for assessing PTH-stimulated cAMP formation. 10 µL of increasing concentrations of [S1]PTH(−6 to +34) or [P1]PTH(−6 to +34) before and after incubation with furin were diluted in CIDB buffer.
# human PTHR1 = target: T2, human PTHR1; assay: PTH-stimulated cAMP formation in GP2.3 reporter cells (Glosensor); assay type: cell-based; conditions: GP2.3 cells; synthetic peptides; mean ± SEM, n = 3; maximum luminescence 20 to 23 min
# Description: as §1
# [2] = tested on: anti-[P1]PTH(−6 to +3)^Biotin antibody; assay: Epitope characterization ELISA with anti-[P1]PTH(−6 to +3)^Biotin capture antibody; assay type: binding
# Text: For additional characterization of our anti-[P1]PTH(−6 to +3) antibody, we biotin-labeled this antibody for use as capture antibody (anti-[P1]PTH(−6 to +3)^Biotin antibody) in combination with the HRP-labeled detection antibody from the intact PTH assay (Immutopics) that is directed against PTH(13-34) (SI Appendix, Fig. S3).
# (§2) pro[P1]PTH(−6 to +3) was conjugated to SulfoLink coupling gel via the C-terminal cysteine (PIERCE) for affinity purification of the rabbit antibodies, which were then HRP-labeled using EZ-Link Plus Activated Peroxidase Kit (Thermo Fisher Scientific), following the manufacturer’s protocol. The anti-pro[P1]PTH(−6 to +3) antibody was also conjugated to biotin using EZ-LinkTM Sulfo-NHS-LC-Biotinylation Kit (Thermo Fisher Scientific), following the manufacturer’s protocol, except using 40-fold instead of 20-fold excess of biotin. After biotin coupling, 15% of rabbit serum were added to the biotinylated antibody [anti-pro[P1]PTH(−6 to +3)^Biotin].
# 100 Defining the epitope of the antibody raised against [P1]PTH(-6 to +15) that was affinity purified with
# 101 immobilized [P1]PTH(-6 to +3).
# 102 The anti-[P1]PTH(-6 to +3) antibody was coupled to biotin (anti-[P1]PTH(-6 to +3)Biotin antibody) and
# 103 used as capture antibody in combination with the detection anti-PTH(13-34) antibody provided in
# 104 the intact PTH assay (Immutopics). Epitope of the affinity purified anti-[P1]PTH(-6 to +3)Biotin
# 105 antibody was partially defined by using [P1]PTH(-6 to +34) and [S1]PTH(-6 to +34), as well as
# 111 recognized by the anti-[P1]PTH(-6 to +3)Biotin antibody resides predominantly in the -6 to -4 region.
# (1 picture or pasted object on this page, not shown here)
# furin = target: T3, furin (Homo sapiens, UniProt P09958); assay: Assessment of PTH analogs cleavage by furin (HPLC and MassSpec); assay type: biochemical; conditions: peptide 10 µg with furin 8U, HEPES buffer pH 7.4, RT, 60 min, final volume 30 µL; HPLC C18 4-76% ACN/0.05% TFA over 40 min and MassSpec
# T3 construct: purchased New England Biolabs
# T3 sequence (P09958 108-595 limits assumed): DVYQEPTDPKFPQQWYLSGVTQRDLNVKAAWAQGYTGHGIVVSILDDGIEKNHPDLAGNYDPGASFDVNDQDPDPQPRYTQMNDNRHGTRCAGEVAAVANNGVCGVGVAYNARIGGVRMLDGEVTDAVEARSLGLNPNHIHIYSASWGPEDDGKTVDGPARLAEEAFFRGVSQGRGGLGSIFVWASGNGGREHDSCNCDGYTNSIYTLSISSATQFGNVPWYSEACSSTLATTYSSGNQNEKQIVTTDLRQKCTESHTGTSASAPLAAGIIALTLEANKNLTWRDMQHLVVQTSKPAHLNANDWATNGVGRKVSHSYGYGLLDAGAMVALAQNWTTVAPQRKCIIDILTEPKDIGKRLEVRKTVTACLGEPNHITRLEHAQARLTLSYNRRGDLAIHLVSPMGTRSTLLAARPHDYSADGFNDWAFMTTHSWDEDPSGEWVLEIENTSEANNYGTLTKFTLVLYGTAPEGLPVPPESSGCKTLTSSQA
# Description: [S1]PTH(−6 to +34) or [P1]PTH(−6 to +34) (10 µg/10 µL 10 mM acetic acid) was incubated with furin (8U/4 μL) (New England Biolabs) and furin buffer (50 mM HEPES (4-(2-hydroxyethyl)-1-piperazineethanesulfonic acid)–KOH (potassium hydroxide) (pH 7.4), 150 mM NaCl, 5 mM MgCl2, 16 mM imidazole, 2% glycerol, 0.15 mM EGTA, 500 μM ATP, 0.5% Triton-X100, 2 mM CaCl2, and 2 mM β-mercaptoethanol) (RT, 60 min; final volume 30 µL) (New England Biolabs), as recommended by the manufacturer, before adding EGTA (100 μM, 3 μL). In some experiments, 1 μL of the reaction buffer was replaced with the furin inhibitor Decanoyl-RVKR-CMK (Tocris Bioscience; 50 μM in water). To assess cleavage, 5 µL of furin-treated or untreated peptides (1.5 µg each) was loaded onto a C18 column (2.1 mm × 150 mm, Higgins Analytical, Inc.), and a gradient of 4 to 76% ACN/0.05% TFA over 40 min (200 µL/min) was applied. To determine the molecular weight, 10 µL of furin-treated or untreated peptides was loaded onto a C18 ZipTip (Millipore Corporation) that had been rinsed with 100% ACN/0.01% TFA (2 × 20 μL) followed by equilibration with H2O/0.01% TFA (5 × 20 μL). Peptide elution with 100% ACN/0.01% TFA was followed by speed vac and MassSpec analysis.
# [3] = tested on: anti-pro[P1]PTH^HRP antibody; assay: pro[P1]PTH immunoassay with anti-pro[P1]PTH^HRP detection antibody; assay type: binding
# Text: To allow quantification of pro[P1]PTH in CM and in plasma of our patients with the homozygous P1 mutation, we replaced the detection antibody in an intact PTH assay (Immutopics) with a horseradish peroxidase (HRP)-labeled antibody raised against pro[P1]PTH(−6 to +15), which was affinity purified with pro[P1]PTH(−6 to +3) (anti-pro[P1]PTH^HRP antibody) (Materials and Methods).
# as §2, with “+3)^Biotin]. […]” for “+3)^Biotin].”
# [4] = anti-[P1]PTH(−6 to +3)^Biotin capture, anti-PTH(13-34) HRP detection, n = 2 to 4
molecule,measurement,setting,value
CC[C@H](C)[C@H](NC(=O)[C@H](CCC(=O)O)NC(=O)[C@H](CO)NC(=O)[C@@H](NC(=O)[C@@H]1CCCN1)C(C)C)C(=O)N[C@@H](CCC(N)=O)C(=O)N[C@@H](CC(C)C)C(=O)N[C@@H](CCSC)C(=O)N[C@@H](Cc1c[nH]cn1)C(=O)N[C@@H](CC(N)=O)C(=O)N[C@@H](CC(C)C)C(=O)NCC(=O)N[C@@H](CCCCN)C(=O)N[C@@H](Cc1c[nH]cn1)C(=O)N[C@@H](CC(C)C)C(=O)N[C@@H](CC(N)=O)C(=O)N[C@@H](CO)C(=O)N[C@@H](CCSC)C(=O)N[C@@H](CCC(=O)O)C(=O)N[C@@H](CCCNC(=N)N)C(=O)N[C@H](C(=O)N[C@@H](CCC(=O)O)C(=O)N[C@@H](Cc1c[nH]c2ccccc12)C(=O)N[C@@H](CC(C)C)C(=O)N[C@@H](CCCNC(=N)N)C(=O)N[C@@H](CCCCN)C(=O)N[C@@H](CCCCN)C(=O)N[C@@H](CC(C)C)C(=O)N[C@@H](CCC(N)=O)C(=O)N[C@@H](CC(=O)O)C(=O)N[C@H](C(=O)N[C@@H](Cc1c[nH]cn1)C(=O)N[C@@H](CC(N)=O)C(=O)N[C@@H](Cc1ccccc1)C(N)=O)C(C)C)C(C)C [[P1]PTH(1-34)],EC50,"[1]; synthetic peptides, mean ± SEM, n = 3 (Fig. 2B), read-out: EC50 for cAMP formation",0.5 ± 0.3 nM
same,EC50,human PTHR1,3.2 ± 0.9 nM
"PTH(2-34): synthetic amino-terminally shortened peptide (VSEIQLMHNLGKHLNSMERVEWLRKKLQDVHNF-NH2; UniProt P01270 33-65, looked up, fragment)",Detection / cross-reactivity (in words),[2]; [4],only minimal cross-reactivity at very high concentrations
"PTH(3-34): synthetic amino-terminally shortened peptide (SEIQLMHNLGKHLNSMERVEWLRKKLQDVHNF-NH2; UniProt P01270 34-65, looked up, fragment)",Detection / cross-reactivity (in words),[2]; [4],not detected at all
"PTH(4-34): synthetic amino-terminally shortened peptide (EIQLMHNLGKHLNSMERVEWLRKKLQDVHNF-NH2; UniProt P01270 35-65, looked up, fragment)",Detection / cross-reactivity (in words),[2]; [4],not detected at all
[S1]PTH(−6 to +34): synthetic proPTH(−6 to +34) with serine at position 1,Biological activity relative to corresponding PTH(1-34) analog (in words),[1],more than an order of magnitude lower
same,Biological activity relative to corresponding PTH(1-34) analog (in words),[1]; listed as pro[S1]PTH(−6 to +34),much less bioactivity than the corresponding PTH(1-34) analogs
same,Maximum cAMP formation relative to [S1]PTH(1-34),"[1]; furin-treated, maximum at 10^−7 M",115.7 ± 8.6%
same,EC50,"[1]; no furin, [S1] series (Fig. 3A), n = 2, top constrained to maximum cAMP by PTH(1-34) at 10^−7 M, read-out: EC50 for cAMP formation, without furin (curve top constrained)",16.4 ± 4.7 nM
same,EC50,"[1]; with Decanoyl-RVKR-CMK (3 μL of 50 μM), Fig. 3A, n = 2, top constrained to maximum cAMP by PTH(1-34) at 10^−7 M, read-out: Estimated EC50 for cAMP formation, with furin inhibitor",272 ± 166 nM
same,Detection / cross-reactivity (in words),[2]; [4],detected equivalently
same,Detection / cross-reactivity (in words),"[2]; anti-[P1]PTH(−6 to +3)^Biotin capture, anti-PTH(13-34) HRP detection, n = 2 to 4, listed as [S1]PTH(-6 to +34)",detected equally well
same,Reduction of detection after incubation with furin,[2]; furin-treated,at least 10 fold
same,Cleavage by furin,furin,"after incubation with furin, most of the peptide eluted at fraction #29 (55% ACN)"
"pro[P1]PTH: mutant pro-hormone secreted by COS-7 cells expressing prepro[P1]PTH(1-84) and present in patients' plasma (protein, UniProt P01270 26-115, looked up, variant S1P, pro-form, mutant pro-hormone secreted by COS-7 cells expressing prepro[P1]PTH(1-84) and present in patients' plasma) pro-form: KSVKKRPVSEIQLMHNLGKHLNSMERVEWLRKKLQDVHNFVALGAPLAPRDAGSQRPRKKEDNVLVESHEKSLGEADKADVNVLTKAKSQ",Half maximum binding of the anti-pro[P1]PTH^HRP detection antibody,"[3]; capture anti-PTH(39-84), HRP detection, CM standard","1,032 pg/mL"
same,Half-maximal binding,[2]; [4],"1,330 pg/mL"
"SVSEIQ … LMHNLGKHLNSMERVEWLRKKLQDVHNFVALGAPLAPRDAGSQRPRKKEDNVLVESHEKSLGEADKADVNVLTKAKSQ (protein, UniProt P01270 32-115, looked up, Parathyroid hormone, Recombinant PTH(1-84) was from Chugai Pharmaceutical Co., Ltd) Parathyroid hormone: SVSEIQLMHNLGKHLNSMERVEWLRKKLQDVHNFVALGAPLAPRDAGSQRPRKKEDNVLVESHEKSLGEADKADVNVLTKAKSQ",Detection / cross-reactivity in pro[P1]PTH assay,"[3]; vs. pro[P1]PTH, up to very high concentrations",barely detected; also recorded: minimal even at very high concentrations; also recorded: extremely low
